Experimental findings from patent US20090221691A1 (UNIVERSITY OF ROCHESTER, published 2009) are described below.

Experiment [1] deals with biotinylated Gβ1γ2 mutant Arg314Ala (rat) (UniProt P54311). Nature of the experiment: flow cytometry, dissociation of Fαi1 from immobilized b-β1γ2.
Experiment [2] concerns the target biotinylated Gβ1γ2 mutant Asn230Ala (rat) (UniProt P54311). The experiment is described as above.
The target in experiment [3] is biotinylated Gβ1γ2 mutant Asp186Ala (rat) (UniProt P54311). The experiment is described as above.
The target in experiment [4] is biotinylated Gβ1γ2 mutant Leu117Ala (rat) (UniProt P54311). The description is as above.
Experiment [5] addresses biotinylated Gβ1γ2 mutant Lys57Ala (rat) (UniProt P54311). The description is as above.
Experiment [6] concerns the target biotinylated Gβ1γ2 mutant Met101Ala (rat) (UniProt P54311). The experiment is described as above.
For experiment [7], the target named is biotinylated Gβ1γ2 mutant Met188Ala (rat) (UniProt P54311). Described as above.
Experiment [8] concerns the target biotinylated Gβ1γ2 mutant Trp332Ala (rat) (UniProt P54311). Described as above.
For experiment [9], the target named is biotinylated Gβ1γ2 mutant Trp99Ala (rat) (UniProt P54311). The experiment is described as above.
Experiment [10] deals with biotinylated Gβ1γ2 mutant Tyr145Ala (rat) (UniProt P54311). The experiment is described as above.
The target of experiment [11] is biotinylated Gβ1γ2 mutant Tyr59Ala (rat) (UniProt P54311). The experiment is described as above.
The target in experiment [12] is biotinylated Gβ1γ2, wild-type (BAP-rat Gβ1 with Gγ2) (rat) (UniProt P54311). The description is as above.
In experiment [13] the target is biotinylated Gβ1γ2 mutant Arg314Ala (rat) (UniProt P54311). The experiment can be described thus: phage ELISA, % of wild-type b-βγ.
Experiment [14] concerns the target biotinylated Gβ1γ2 mutant Asn230Ala (rat) (UniProt P54311). The experiment can be described thus: phage ELISA, % of wild-type b-βγ.
The target in experiment [15] is biotinylated Gβ1γ2 mutant Asp186Ala (rat) (UniProt P54311). Nature of the experiment: phage ELISA, % of wild-type b-βγ.
Experiment [16] concerns the target biotinylated Gβ1γ2 mutant Asp246Ser (rat) (UniProt P54311). The experiment can be described thus: phage ELISA, % of wild-type b-βγ.
In experiment [17] the target is biotinylated Gβ1γ2 mutant His311Ala (rat) (UniProt P54311). Nature of the experiment: phage ELISA, % of wild-type b-βγ.
Experiment [18] has as its target biotinylated Gβ1γ2 mutant Leu117Ala (rat) (UniProt P54311). The experiment can be described thus: phage ELISA, % of wild-type b-βγ.
Experiment [19] addresses biotinylated Gβ1γ2 mutant Lys57Ala (rat) (UniProt P54311). The experiment can be described thus: phage ELISA, % of wild-type b-βγ.
The target in experiment [20] is biotinylated Gβ1γ2 mutant Met101Ala (rat) (UniProt P54311). The experiment can be described thus: phage ELISA, % of wild-type b-βγ.
For experiment [21], the target named is biotinylated Gβ1γ2 mutant Met188Ala (rat) (UniProt P54311). The experiment can be described thus: phage ELISA, % of wild-type b-βγ.
Experiment [22] concerns the target biotinylated Gβ1γ2 mutant Trp332Ala (rat) (UniProt P54311). The experiment can be described thus: phage ELISA, % of wild-type b-βγ.
Experiment [23] has as its target biotinylated Gβ1γ2 mutant Trp99Ala (rat) (UniProt P54311). Nature of the experiment: phage ELISA, % of wild-type b-βγ.
Experiment [24] has as its target biotinylated Gβ1γ2 mutant Tyr145Ala (rat) (UniProt P54311). Nature of the experiment: phage ELISA, % of wild-type b-βγ.
Experiment [25] addresses biotinylated Gβ1γ2 mutant Tyr59Ala (rat) (UniProt P54311). The experiment can be described thus: phage ELISA, % of wild-type b-βγ.
In experiment [26] the target is T1, biotinylated Gβ1γ2, wild-type (BAP-rat Gβ1 with Gγ2) (rat, UniProt P54311 1-340; P63212 2-68, biotin on the lysine acceptor residue of the BAP).
T1 construct: immobilized on streptavidin in the assays; also called b-βγ; b-Gβ1γ2; not shown: 20 amino acid biotin acceptor peptide (BAP) fused to the N-terminus
Nature of the experiment: phage ELISA on immobilized b-βγ. As for the experimental part: Phage ELISA assays used to assess peptide binding to wild-type and mutant b-βγ were performed according to standard methods (Smrcka and Scott (2002) Methods Enzymol. 344:557-76). Briefly, 1 μg streptavidin was immobilized in the well of a […] overnight at 4° C. The wells were blocked with 100 μL of 2% bovine serum albumin (BSA) in Tris-buffered saline (TBS) for 1 hour at 4° C. followed by three washes of 1×TBS/0.5% TWEEN®. […] The wells were washed, followed by the addition of 1×10⁶ to 1×10¹⁰ phage particles and incubated at 4° C. for 3 hours. The wells were then washed six times with TBS/0.5% TWEEN® followed by addition of 40 μL of 1:5000 dilution of anti-M13 antibody (Pharmacia, Uppsala, Sweden) and incubated at room temperature for 1 hour. The wells were washed, followed by the addition of 40 μL of (2,2′-Azino-bis(3-ethylbenzthiazoline)-6-sulfonic acid (ABTS) and the […] reaction was monitored at 405 nm. Non-specific binding was subtracted for each reading.

biotinylated Gβ1γ2 mutant Asp186Ala (rat), sequence (P54311 whole entry D186A, chain 1 of 2): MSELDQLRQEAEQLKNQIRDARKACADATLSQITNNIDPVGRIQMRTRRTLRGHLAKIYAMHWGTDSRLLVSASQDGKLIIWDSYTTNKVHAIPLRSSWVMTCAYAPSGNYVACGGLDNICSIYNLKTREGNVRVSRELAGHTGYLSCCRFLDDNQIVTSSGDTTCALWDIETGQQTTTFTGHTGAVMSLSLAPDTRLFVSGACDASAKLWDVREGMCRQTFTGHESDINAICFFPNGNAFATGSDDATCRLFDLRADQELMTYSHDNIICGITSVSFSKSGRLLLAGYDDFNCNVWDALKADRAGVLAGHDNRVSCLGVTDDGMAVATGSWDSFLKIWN
biotinylated Gβ1γ2 mutant Asp186Ala (rat), sequence (P63212 2-68, chain 2 of 2, further chain): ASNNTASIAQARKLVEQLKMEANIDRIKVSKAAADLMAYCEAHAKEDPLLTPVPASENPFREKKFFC
biotinylated Gβ1γ2 mutant Trp332Ala (rat), sequence (P54311 whole entry W332A, chain 1 of 2): as the sequence (P54311 whole entry D186A, chain 1 of 2) above, with A186D, W332A counted along it
biotinylated Gβ1γ2 mutant Trp332Ala (rat), sequence (P63212 2-68, chain 2 of 2, further chain): as the sequence (P63212 2-68, chain 2 of 2, further chain) above
biotinylated Gβ1γ2 mutant Tyr59Ala (rat), sequence (P54311 whole entry Y59A, chain 1 of 2): as the sequence (P54311 whole entry D186A, chain 1 of 2) above, with Y59A, A186D counted along it
biotinylated Gβ1γ2 mutant Tyr59Ala (rat), sequence (P63212 2-68, chain 2 of 2, further chain): as the sequence (P63212 2-68, chain 2 of 2, further chain) above
biotinylated Gβ1γ2 mutant Asn230Ala (rat), sequence (P54311 whole entry N230A, chain 1 of 2): as the sequence (P54311 whole entry D186A, chain 1 of 2) above, with A186D, N230A counted along it
biotinylated Gβ1γ2 mutant Asn230Ala (rat), sequence (P63212 2-68, chain 2 of 2, further chain): as the sequence (P63212 2-68, chain 2 of 2, further chain) above
biotinylated Gβ1γ2 mutant His311Ala (rat), sequence (P54311 whole entry H311A, chain 1 of 2): as the sequence (P54311 whole entry D186A, chain 1 of 2) above, with A186D, H311A counted along it
biotinylated Gβ1γ2 mutant His311Ala (rat), sequence (P63212 2-68, chain 2 of 2, further chain): as the sequence (P63212 2-68, chain 2 of 2, further chain) above
biotinylated Gβ1γ2 mutant Met101Ala (rat), sequence (P54311 whole entry M101A, chain 1 of 2): as the sequence (P54311 whole entry D186A, chain 1 of 2) above, with M101A, A186D counted along it
biotinylated Gβ1γ2 mutant Met101Ala (rat), sequence (P63212 2-68, chain 2 of 2, further chain): as the sequence (P63212 2-68, chain 2 of 2, further chain) above
biotinylated Gβ1γ2 mutant Lys57Ala (rat), sequence (P54311 whole entry K57A, chain 1 of 2): as the sequence (P54311 whole entry D186A, chain 1 of 2) above, with K57A, A186D counted along it
biotinylated Gβ1γ2 mutant Lys57Ala (rat), sequence (P63212 2-68, chain 2 of 2, further chain): as the sequence (P63212 2-68, chain 2 of 2, further chain) above
Fluorescein-labeled Gαi1, sequence (P10824 2-354): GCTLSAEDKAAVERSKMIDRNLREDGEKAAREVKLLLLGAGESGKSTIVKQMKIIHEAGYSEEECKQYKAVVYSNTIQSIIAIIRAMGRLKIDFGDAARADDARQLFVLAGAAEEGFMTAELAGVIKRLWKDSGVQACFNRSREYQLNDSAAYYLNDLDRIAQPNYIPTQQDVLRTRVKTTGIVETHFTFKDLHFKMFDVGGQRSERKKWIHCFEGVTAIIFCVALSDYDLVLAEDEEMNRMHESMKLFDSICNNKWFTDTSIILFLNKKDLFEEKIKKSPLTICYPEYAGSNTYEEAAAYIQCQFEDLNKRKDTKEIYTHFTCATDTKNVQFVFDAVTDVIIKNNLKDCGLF
biotinylated Gβ1γ2 mutant Asp246Ser (rat), sequence (P54311 whole entry D246S, chain 1 of 2): as the sequence (P54311 whole entry D186A, chain 1 of 2) above, with A186D, D246S counted along it
biotinylated Gβ1γ2 mutant Asp246Ser (rat), sequence (P63212 2-68, chain 2 of 2, further chain): as the sequence (P63212 2-68, chain 2 of 2, further chain) above
biotinylated Gβ1γ2 mutant Leu117Ala (rat), sequence (P54311 whole entry L117A, chain 1 of 2): as the sequence (P54311 whole entry D186A, chain 1 of 2) above, with L117A, A186D counted along it
biotinylated Gβ1γ2 mutant Leu117Ala (rat), sequence (P63212 2-68, chain 2 of 2, further chain): as the sequence (P63212 2-68, chain 2 of 2, further chain) above
biotinylated Gβ1γ2 mutant Arg314Ala (rat), sequence (P54311 whole entry R314A, chain 1 of 2): as the sequence (P54311 whole entry D186A, chain 1 of 2) above, with A186D, R314A counted along it
biotinylated Gβ1γ2 mutant Arg314Ala (rat), sequence (P63212 2-68, chain 2 of 2, further chain): as the sequence (P63212 2-68, chain 2 of 2, further chain) above
biotinylated Gβ1γ2 mutant Tyr145Ala (rat), sequence (P54311 whole entry Y145A, chain 1 of 2): as the sequence (P54311 whole entry D186A, chain 1 of 2) above, with Y145A, A186D counted along it
biotinylated Gβ1γ2 mutant Tyr145Ala (rat), sequence (P63212 2-68, chain 2 of 2, further chain): as the sequence (P63212 2-68, chain 2 of 2, further chain) above
T1 sequence (P54311 whole entry, chain 1 of 2, the tested form may be a part): as the sequence (P54311 whole entry D186A, chain 1 of 2) above, with A186D counted along it
T1 sequence (P63212 2-68, chain 2 of 2): as the sequence (P63212 2-68, chain 2 of 2, further chain) above
biotinylated Gβ1γ2 mutant Trp99Ala (rat), sequence (P54311 whole entry W99A, chain 1 of 2): as the sequence (P54311 whole entry D186A, chain 1 of 2) above, with W99A, A186D counted along it
biotinylated Gβ1γ2 mutant Trp99Ala (rat), sequence (P63212 2-68, chain 2 of 2, further chain): as the sequence (P63212 2-68, chain 2 of 2, further chain) above
biotinylated Gβ1γ2 mutant Met188Ala (rat), sequence (P54311 whole entry M188A, chain 1 of 2): as the sequence (P54311 whole entry D186A, chain 1 of 2) above, with A186D, M188A counted along it
biotinylated Gβ1γ2 mutant Met188Ala (rat), sequence (P63212 2-68, chain 2 of 2, further chain): as the sequence (P63212 2-68, chain 2 of 2, further chain) above
biotinylated Gβ1γ2, wild-type (BAP-rat Gβ1 with Gγ2) (rat), sequence (P54311 whole entry, chain 1 of 2): as the sequence (P54311 whole entry D186A, chain 1 of 2) above, with A186D counted along it
biotinylated Gβ1γ2, wild-type (BAP-rat Gβ1 with Gγ2) (rat), sequence (P63212 2-68, chain 2 of 2, further chain): as the sequence (P63212 2-68, chain 2 of 2, further chain) above

With Fluorescein-labeled Gαi1, the koff in experiment [1] stood at 0.00197 s⁻¹; in [2], 0.00247 s⁻¹; in experiment [3], 0.00267 s⁻¹; in [4] it was 0.00602 s⁻¹; in experiment [5], 0.0024 s⁻¹; in [6], 0.0019 s⁻¹. Further, the koff in [7] was 0.00203 s⁻¹; in experiment [8], 0.00502 s⁻¹; in experiment [9] it was 0.0048 s⁻¹; in experiment [10] it was 0.00258 s⁻¹; in experiment [11], 0.00302 s⁻¹; in experiment [12], 0.00205 s⁻¹.

For the molecule LCSKAYLLLGQTC (Group I) [phage 2F (LCSKAYLLLGQTC)], the % of Wild-Type Signal worked out at 2.4% in [13]; 27.6% in [14]; 2.4% in experiment [15]; 0.6% in experiment [16]; 23.6% in experiment [17]; 2.1% in experiment [18]. Also, the % of Wild-Type Signal was -4.5% in [19]; 6% in [20]; 8.5% in experiment [21]; -1.5% in [22]; 32.6% in [23]; 0.1% in experiment [24]. Besides, the % of Wild-Type Signal in experiment [25] was -2%. The binding result in experiment [26] is given as “binds”.

In the case of SCEKRYGIEFCT (Group III) [phage C4 (SCEKRYGIEFCT)], the binding result in experiment [26] is “binds”.

Turning to SIGKALFILGYPDYD [phage 3.14 (SIGKALFILGYPDYD)], the % of Wild-Type Signal in experiment [13] came to 50.2%; in experiment [14] it was 22.4%; in experiment [15], 14.4%; in experiment [16] it was 66.5%; in [17], 93.4%; in [18], 2.1%. For the same molecule, the % of Wild-Type Signal is 18.6% in [19]; 26.8% in experiment [20]; 2.5% in experiment [21]; 7.1% in experiment [22]; 66% in [23]; 0.8% in experiment [24]. Further, in [25], the % of Wild-Type Signal turned out to be 24.7%. The binding result in experiment [26] is given as “binds”.

Consider WCPPKAMTQLGIKAC (Group II) [phage C14 (WCPPKAMTQLGIKAC)], for which the % of Wild-Type Signal in [13] came out at 3.9%; in experiment [14], 60%; in [15] it was 3.6%; in [16], 6.3%; in experiment [17] it was 6.1%; in [18] it was 3.8%. The % of Wild-Type Signal in experiment [19] is 3%; in [20], 1.1%; in experiment [21] it was 9.9%; in experiment [22], 1.6%; in experiment [23] it was 10.1%; in experiment [24] it was 1.9%. Moreover, the % of Wild-Type Signal in [25] turned out to be 3.6%. In addition, the binding result in experiment [26] is recorded as “binds”.

SCKRTKAQILLAPCT (Group I; also called Cl) [phage C1 (SCKRTKAQILLAPCT)]: the % of Wild-Type Signal in [13] came out at 2.8%; in experiment [14] it was 19.8%; in [15], 1.4%; in experiment [16] it was 2.3%; in experiment [17], 3%; in [18], 5.2%. Also, the % of Wild-Type Signal was 0.1% in [19]; 70.5% in experiment [20]; 4% in experiment [21]; -0.3% in [22]; 1.2% in experiment [23]; 88% in experiment [24]. In addition, the % of Wild-Type Signal in [25] is 0.3%. The binding result in experiment [26] is “binds”.

In the case of SCGHGLKVQSTIGACA (Group II) [phage 3C (SCGHGLKVQSTIGACA)], the % of Wild-Type Signal in experiment [13] stood at 8.3%; in experiment [14], 4.1%; in [15] it was 35%; in experiment [16], 2%; in experiment [17], 30.5%; in experiment [18], 10%. The % of Wild-Type Signal in [19] was 3.6%; in experiment [20] it was -4.2%; in experiment [21] it was -5.7%; in experiment [22] it was -0.3%; in [23], -0.5%; in experiment [24] it was 2.7%. Moreover, the % of Wild-Type Signal in experiment [25] amounted to 8.5%. In addition, the binding result in experiment [26] was “binds”.

Regarding SCEKRYGIEFCT [phage C4 (…)], the % of Wild-Type Signal in experiment [13] was 1.4%; in [14], 11.5%; in experiment [15] it was 51.3%; in [16], 35.8%; in experiment [17], 36.5%; in experiment [18], 18.4%. Further, the % of Wild-Type Signal in experiment [19] is -0.2%; in experiment [20], 61.2%; in experiment [21], 128%; in experiment [22] it was 1.7%; in [23], 67%; in experiment [24] it was 4.4%. Besides, the % of Wild-Type Signal in [25] is 7.6%.

For SCEKRLGVRSCT (Group III) [phage C5 (SCEKRLGVRSCT)], the % of Wild-Type Signal in [13] was found to be 76.5%; in experiment [14], 33.5%; in [15] it was 45.7%; in experiment [16], 56.3%; in experiment [17], 58.7%; in experiment [18], 28.5%. Moreover, the % of Wild-Type Signal in [19] amounted to 5.6%; in [20], 47.8%; in [21] it was 97.2%; in [22], 3.2%; in [23], 39%; in [24], 16.7%. In addition, the % of Wild-Type Signal in [25] came out at 73.8%. The binding result in [26] is reported as “binds”.

For WCPPKLEQWYDGCA (Group IV) [phage C2 (WCPPKLEQWYDGCA)], the % of Wild-Type Signal in experiment [13] came to 1.3%; in experiment [14], 0%; in experiment [15], 267%; in [16], 5.9%; in experiment [17] it was 11.7%; in experiment [18], 1.5%. Moreover, the % of Wild-Type Signal in [19] is -1.2%; in experiment [20], 157%; in experiment [21], -0.7%; in experiment [22] it was 4.7%; in [23] it was -1%; in experiment [24] it was 4.5%. The % of Wild-Type Signal in experiment [25] is -1.7%. Also, the binding result in experiment [26] is recorded as “binds”.
